From US20150196666A1

Key:
CD22 (human) [1] = biological target: CD22 (human) (UniProt P20273); assay: flow cytometry, unconjugated antibody + FITC goat anti-human IgG, Daudi cells; background in parentheses
CD22 (human) [2] = biological target: CD22 (human) (UniProt P20273); assay: flow cytometry, unconjugated antibody + FITC goat anti-human IgG, MN-60 cells; background in parentheses
CD22 (human) [3] = biological target: CD22 (human) (UniProt P20273); assay: flow cytometry, unconjugated antibody + FITC goat anti-human IgG, RS4;11 cells; background in parentheses
CD22 (human) [4] = biological target: CD22 (human) (UniProt P20273); assay: flow cytometry, unconjugated antibody + FITC goat anti-human IgG, WSU-FSCCL cells; background in parentheses
CD22 (human) [5] = biological target: CD22 (human) (UniProt P20273); assay: flow cytometry, unconjugated antibody + FITC goat anti-human IgG, 697 cells; background in parentheses
CD22 (human) [6] = biological target: CD22 (human) (UniProt P20273); assay: flow cytometry, unconjugated antibody + FITC goat anti-human IgG, Jeko-1 cells; background in parentheses
CD22 (human) [7] = biological target: CD22 (human) (UniProt P20273); assay: flow cytometry, unconjugated antibody + FITC goat anti-human IgG, REH cells; background in parentheses
CD22 (human) [8] = biological target: CD22 (human) (UniProt P20273); assay: flow cytometry, unconjugated antibody + FITC goat anti-human IgG, Ramos cells; background in parentheses
CD22 (human) [9] = biological target: CD22 (human) (UniProt P20273); assay: flow cytometry, unconjugated antibody + FITC goat anti-human IgG, Raji cells; background in parentheses
[10] = biological target: human trophoblast cell-surface antigen (TROP-2) (human) (UniProt P09758); assay: cell binding assay on TROP-2-expressing cells
[11] = biological target: human trophoblast cell-surface antigen (TROP-2) (human) (UniProt P09758); assay: flow cytometry, surface binding on Capan-1 cells
[12] = biological target: human trophoblast cell-surface antigen (TROP-2) (human) (UniProt P09758); assay: flow cytometry, surface, NCI-N87 cells
[13] = biological target: CD74 (invariant chain, Ii) (human) (UniProt P04233); assay: flow cytometry, permeabilized Hs746T cells; background in parentheses
[14] = biological target: CD74 (invariant chain, Ii) (human) (UniProt P04233); assay: flow cytometry, membrane-only CD74, A-375 cells; background (GAH-FITC only) in parentheses
[15] = biological target: CD74 (invariant chain, Ii) (human) (UniProt P04233); assay: flow cytometry, membrane-only CD74, Capan-1 cells
[16] = biological target: CD74 (invariant chain, Ii) (human) (UniProt P04233); assay: flow cytometry, permeabilized Capan-1 cells; background in parentheses
[17] = biological target: CD74 (invariant chain, Ii) (human) (UniProt P04233); assay: flow cytometry, membrane-only CD74, HuH-7 cells; background (GAH-FITC only) in parentheses
[18] = biological target: CD74 (invariant chain, Ii) (human) (UniProt P04233); assay: flow cytometry, membrane-only CD74, Capan-1 cells; background (GAH-FITC only) in parentheses
[19] = biological target: CD74 (invariant chain, Ii) (human) (UniProt P04233); assay: flow cytometry, permeabilized NCI-N87 cells; background in parentheses
[20] = biological target: CD74 (invariant chain, Ii) (human) (UniProt P04233); assay: flow cytometry, permeabilized NCI-N87 cells
[21] = biological target: CD74 (invariant chain, Ii) (human) (UniProt P04233); assay: flow cytometry, permeabilized A-375 cells; background in parentheses
[22] = biological target: CD74 (invariant chain, Ii) (human) (UniProt P04233); assay: flow cytometry, membrane-only CD74, NCI-N87 cells; background (GAH-FITC only) in parentheses
[23] = biological target: CD74 (invariant chain, Ii) (human) (UniProt P04233); assay: flow cytometry, membrane-only CD74, Hs746T cells; background (GAH-FITC only) in parentheses
[24] = biological target: CD74 (invariant chain, Ii) (human) (UniProt P04233); assay: flow cytometry, permeabilized Hs746T cells
[25] = biological target: CD74 (invariant chain, Ii) (human) (UniProt P04233); assay: flow cytometry, membrane-only CD74, Hep-G2 cells
[26] = biological target: CD74 (invariant chain, Ii) (human) (UniProt P04233); assay: flow cytometry, membrane-only CD74, NCI-N87 cells
[27] = biological target: CD74 (invariant chain, Ii) (human) (UniProt P04233); assay: flow cytometry, permeabilized Raji cells; background in parentheses
[28] = biological target: CD74 (invariant chain, Ii) (human) (UniProt P04233); assay: flow cytometry, membrane-only CD74, Hep-G2 cells; background (GAH-FITC only) in parentheses
[29] = biological target: CD74 (invariant chain, Ii) (human) (UniProt P04233); assay: flow cytometry, permeabilized Hep-G2 cells; background in parentheses
[30] = biological target: CD74 (invariant chain, Ii) (human) (UniProt P04233); assay: flow cytometry, membrane-only CD74, Raji cells
[31] = biological target: CD74 (invariant chain, Ii) (human) (UniProt P04233); assay: flow cytometry, permeabilized Capan-1 cells
[32] = biological target: CD74 (invariant chain, Ii) (human) (UniProt P04233); assay: cell binding assay on antigen-positive cells
[33] = biological target: CD74 (invariant chain, Ii) (human) (UniProt P04233); assay: flow cytometry, membrane-only CD74, A-375 cells
[34] = biological target: CD74 (invariant chain, Ii) (human) (UniProt P04233); assay: flow cytometry, membrane-only CD74, HuH-7 cells
[35] = biological target: CD74 (invariant chain, Ii) (human) (UniProt P04233); assay: flow cytometry, permeabilized A-375 cells
[36] = biological target: CD74 (invariant chain, Ii) (human) (UniProt P04233); assay: flow cytometry, membrane-only CD74, Hs746T cells
[37] = biological target: CD74 (invariant chain, Ii) (human) (UniProt P04233); assay: flow cytometry, permeabilized Hep-G2 cells
[38] = biological target: CD74 (invariant chain, Ii) (human) (UniProt P04233); assay: flow cytometry, permeabilized HuH-7 cells; background in parentheses
[39] = biological target: CD74 (invariant chain, Ii) (human) (UniProt P04233); assay: flow cytometry, permeabilized HuH-7 cells
[40] = biological target: CD74 (invariant chain, Ii) (human) (UniProt P04233); assay: flow cytometry, membrane-only CD74, Raji cells; background (GAH-FITC only) in parentheses
[41] = biological target: CD74 (invariant chain, Ii) (human) (UniProt P04233); assay: flow cytometry, permeabilized Raji cells
CD20 (human) [42] = biological target: CD20 (human) (UniProt P11836); assay: flow cytometry, unconjugated antibody + FITC goat anti-human IgG, Daudi cells; background in parentheses
CD20 (human) [43] = biological target: CD20 (human) (UniProt P11836); assay: flow cytometry, unconjugated antibody + FITC goat anti-human IgG, MN-60 cells; background in parentheses
CD20 (human) [44] = biological target: CD20 (human) (UniProt P11836); assay: flow cytometry, unconjugated antibody + FITC goat anti-human IgG, RS4;11 cells; background in parentheses
CD20 (human) [45] = biological target: CD20 (human) (UniProt P11836); assay: flow cytometry, unconjugated antibody + FITC goat anti-human IgG, WSU-FSCCL cells; background in parentheses
CD20 (human) [46] = biological target: CD20 (human) (UniProt P11836); assay: flow cytometry, unconjugated antibody + FITC goat anti-human IgG, 697 cells; background in parentheses
CD20 (human) [47] = biological target: CD20 (human) (UniProt P11836); assay: flow cytometry, unconjugated antibody + FITC goat anti-human IgG, Jeko-1 cells; background in parentheses
CD20 (human) [48] = biological target: CD20 (human) (UniProt P11836); assay: flow cytometry, unconjugated antibody + FITC goat anti-human IgG, REH cells; background in parentheses
CD20 (human) [49] = biological target: CD20 (human) (UniProt P11836); assay: flow cytometry, unconjugated antibody + FITC goat anti-human IgG, Ramos cells; background in parentheses
CD20 (human) [50] = biological target: CD20 (human) (UniProt P11836); assay: flow cytometry, unconjugated antibody + FITC goat anti-human IgG, Raji cells; background in parentheses
CEACAM6 (human) [51] = biological target: CEACAM6 (human) (UniProt P40199); assay: flow cytometry, surface, HuH-7 cells
CEACAM6 (human) [52] = biological target: CEACAM6 (human) (UniProt P40199); assay: flow cytometry, surface, NCI-N87 cells
CEACAM6 (human) [53] = biological target: CEACAM6 (human) (UniProt P40199); assay: flow cytometry, Hep-G2 cells

Chain of human trophoblast cell-surface antigen (TROP-2) (human) (P09758 27-323): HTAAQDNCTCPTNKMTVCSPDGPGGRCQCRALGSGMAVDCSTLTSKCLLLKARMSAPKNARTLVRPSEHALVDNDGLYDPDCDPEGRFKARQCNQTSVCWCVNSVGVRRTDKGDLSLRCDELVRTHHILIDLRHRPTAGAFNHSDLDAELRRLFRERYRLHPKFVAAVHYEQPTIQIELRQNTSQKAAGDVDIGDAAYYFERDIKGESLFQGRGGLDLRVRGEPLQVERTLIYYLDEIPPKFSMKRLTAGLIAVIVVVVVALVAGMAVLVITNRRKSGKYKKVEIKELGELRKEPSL
Chain of CEACAM6 (human) (P40199 35-320): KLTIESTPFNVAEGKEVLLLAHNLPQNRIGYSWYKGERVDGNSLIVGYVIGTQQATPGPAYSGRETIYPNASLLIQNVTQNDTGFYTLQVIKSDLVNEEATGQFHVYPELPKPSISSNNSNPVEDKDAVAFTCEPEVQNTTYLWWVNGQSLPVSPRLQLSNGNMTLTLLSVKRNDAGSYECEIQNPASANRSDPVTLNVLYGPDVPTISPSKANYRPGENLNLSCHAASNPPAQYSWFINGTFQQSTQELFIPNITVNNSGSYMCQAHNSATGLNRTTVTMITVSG
Chain of CD20 (human) (P11836 whole entry): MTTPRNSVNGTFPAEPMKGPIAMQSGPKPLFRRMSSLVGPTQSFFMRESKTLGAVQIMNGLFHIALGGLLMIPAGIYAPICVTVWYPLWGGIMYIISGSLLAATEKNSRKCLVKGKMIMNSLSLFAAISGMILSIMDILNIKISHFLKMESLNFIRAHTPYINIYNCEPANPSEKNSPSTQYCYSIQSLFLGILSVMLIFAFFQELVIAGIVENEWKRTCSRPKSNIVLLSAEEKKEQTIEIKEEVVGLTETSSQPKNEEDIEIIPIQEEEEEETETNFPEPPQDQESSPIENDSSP
Chain of CD74 (invariant chain, Ii) (human) (P04233 whole entry, change not shown): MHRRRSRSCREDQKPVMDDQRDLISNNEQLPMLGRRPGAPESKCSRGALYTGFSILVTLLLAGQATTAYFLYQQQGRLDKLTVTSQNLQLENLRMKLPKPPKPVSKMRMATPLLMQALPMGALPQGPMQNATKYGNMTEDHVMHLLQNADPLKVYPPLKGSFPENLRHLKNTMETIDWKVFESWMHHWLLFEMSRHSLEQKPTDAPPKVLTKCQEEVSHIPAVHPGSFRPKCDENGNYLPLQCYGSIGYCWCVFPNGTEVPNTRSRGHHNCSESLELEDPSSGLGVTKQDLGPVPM

Which median fluorescence (CD22 (human) [1]) does the source give for “epratuzumab (hLL2), humanized anti-CD22 IgG1 (antibody)” here?
Its median fluorescence is 145.

And the median fluorescence (CD22 (human) [2])?
The median fluorescence was 10.3.

What about the median fluorescence (CD22 (human) [3]) of the same molecule?
The median fluorescence was 23.3.

And the median fluorescence (CD22 (human) [4])?
Its median fluorescence is 7.7.

And the median fluorescence (CD22 (human) [5])?
The median fluorescence was 16.

What about the median fluorescence (CD22 (human) [6]) of the same molecule?
The median fluorescence was 11.2.

What about the median fluorescence (CD22 (human) [7]) of the same molecule?
The median fluorescence was 22.9.

What about the median fluorescence (CD22 (human) [8]) of the same molecule?
The median fluorescence was 40.8.

What about the median fluorescence (CD22 (human) [9]) of the same molecule?
The median fluorescence was 45.9.

“hRS7-CL2-SN-38 (hRS7 IgG conjugated to SN-38 through the CL2 linker) (antibody)” was tested. Which Kd [10] did it give?
The Kd was 1.2 nM.

With “hRS7-CL2A-SN-38 (hRS7 IgG conjugated to SN-38 through the CL2A linker) (antibody)” as the molecule, how does the Kd [10] read?
Its Kd is 1.2 nM.

Which MFI (surface) [11] does the source give for “humanized RS7 IgG (hRS7), anti-TROP-2 (anti-EGP-1) humanized antibody” here?
Its MFI (surface) is 237.

What about the MFI (surface) [12] of the same molecule?
Its MFI (surface) is 795.

Which results are given for “milatuzumab (hLL1), humanized anti-CD74 IgG1 (antibody)”?
MFI (surface and cytoplasmic) [13]: 144; MFI (surface) [14]: 16; MFI Ratio hLL1:bkgd (surface) [15]: 1.8; MFI (surface and cytoplasmic) [16]: 248; MFI (surface) [17]: 8; MFI (surface) [18]: 22; MFI (surface and cytoplasmic) [19]: 220; MFI Ratio hLL1:bkgd (surface and cytoplasmic) [20]: 36.7; MFI (surface and cytoplasmic) [21]: 185; MFI (surface) [22]: 5; MFI (surface) [23]: 17; MFI Ratio hLL1:bkgd (surface and cytoplasmic) [24]: 28.8; MFI Ratio hLL1:bkgd (surface) [25]: 1.5; MFI Ratio hLL1:bkgd (surface) [26]: 1.3; MFI (surface and cytoplasmic) [27]: 143; MFI (surface) [28]: 9; MFI (surface and cytoplasmic) [29]: 156; MFI Ratio hLL1:bkgd (surface) [30]: 19.6; MFI Ratio hLL1:bkgd (surface and cytoplasmic) [31]: 49.6; Kd [32]: 0.77 nM; MFI Ratio hLL1:bkgd (surface) [33]: 5.3; MFI Ratio hLL1:bkgd (surface) [34]: 1.6; MFI Ratio hLL1:bkgd (surface and cytoplasmic) [35]: 30.8; MFI Ratio hLL1:bkgd (surface) [36]: 2.1; MFI Ratio hLL1:bkgd (surface and cytoplasmic) [37]: 31.2; MFI (surface and cytoplasmic) [38]: 114; MFI Ratio hLL1:bkgd (surface and cytoplasmic) [39]: 28.5; MFI (surface) [40]: 59; MFI Ratio hLL1:bkgd (surface and cytoplasmic) [41]: 28.6

How did the Kd [32] turn out when milatuzumab-CL2A-SN-38 (antibody) was run?
The Kd was 0.59 nM.

With milatuzumab-CL2E-SN-38 (antibody) as the molecule, how does the Kd [32] read?
The Kd was 0.8 nM.

“veltuzumab (hA20), humanized anti-CD20 IgG1 (antibody)” was tested. Which median fluorescence (CD20 (human) [42]) did it give?
Its median fluorescence is 815.

What about the median fluorescence (CD20 (human) [43]) of the same molecule?
The median fluorescence was 21.5.

What about the median fluorescence (CD20 (human) [44]) of the same molecule?
The median fluorescence was 3.7.

What about the median fluorescence (CD20 (human) [45]) of the same molecule?
The median fluorescence was 97.4.

And the median fluorescence (CD20 (human) [46])?
The median fluorescence was 6.9.

And the median fluorescence (CD20 (human) [47])?
The median fluorescence was 605.

What about the median fluorescence (CD20 (human) [48]) of the same molecule?
Its median fluorescence is 12.3.

What about the median fluorescence (CD20 (human) [49]) of the same molecule?
Its median fluorescence is 620.

What about the median fluorescence (CD20 (human) [50]) of the same molecule?
Its median fluorescence is 422.

B1: hMN-15, humanized anti-CEACAM6 IgG1 (antibody, from a related filing, V domains shown)
VH: QVQLVESGGGVVQPGRSLRLSCSSSGFALTDYYMSWVRQAPGKGLEWLGFIANKANGHTTDYSPSVKGRFTISRDNSKNTLFLQMDSLRPEDTGVYFCARDMGIRWNFDVWGQGTPVTVSS
VL: DIQLTQSPSSLSASVGDRVTMTCSASSRVSYIHWYQQKPGKAPKRWIYGTSTLASGVPARFSGSGSGTDFTFTISSLQPEDIATYYCQQWSYNPPTFGQGTKVEIKR
Which MFI (surface) (CEACAM6 (human) [51]) does the source give for B1 here?
The MFI (surface) was 81.

What about the MFI (surface) (CEACAM6 (human) [52]) of the same molecule?
The MFI (surface) was 1120.

What about the MFI (CEACAM6 (human) [53]) of the same molecule?
Its MFI is 175.
